Test results: patent US20050037969A1 (ARBOR VITA, published 2005)
Ends that are not written are not given here. * marks the point of attachment. Biotin = O=C1N[C@H]2[C@H](CS[C@H]2CCCCC(=O)*)N1

B1: CD49E C-terminal peptide AA11L, biotinylated (peptide)
peptide: Biotin-PYGTAMEKAQLKPPATSDA
notes: also called CD49E (alpha-4)
B2: CD95 (Fas) C-terminal peptide AA13L, biotinylated (peptide)
peptide: Biotin-KDITSDSENSNFRNEIQSLV
notes: also called CD95 (Apo-1/Fas); AAI3L
B3: FceRIb C-terminal peptide AA25L, biotinylated (peptide)
peptide: Biotin-YSATYSELEDPGEMSPPIDL
notes: also called FceRlb; FcεRβI
B4: V-gated Ca2+ channel C-terminal peptide AA46L (peptide)
peptide: Biotin-SSGGRARHSYHHPDQDHWC
notes: Marked (S), sticky peptide with high background; also called V-gated Ca2+ channel (S)
B5: CD138 C-terminal peptide AA18L, biotinylated (peptide)
peptide: Biotin-PKQANGGAYQKPTKQEEFYA
notes: also called CD138 (syndecan-1); CD138 (syndecan)

These binders were tested against T1, GST-DLG5 (p-dlg) PDZ domain fusion protein (Human, UniProt Q8TDM6 1343-1583) (assay: A/G assays).
T1 construct: also called Human discs large protein p-dlg; not shown: glutathione S-transferase encoded by vector pGEX-3X (Pharmacia)
T1 sequence: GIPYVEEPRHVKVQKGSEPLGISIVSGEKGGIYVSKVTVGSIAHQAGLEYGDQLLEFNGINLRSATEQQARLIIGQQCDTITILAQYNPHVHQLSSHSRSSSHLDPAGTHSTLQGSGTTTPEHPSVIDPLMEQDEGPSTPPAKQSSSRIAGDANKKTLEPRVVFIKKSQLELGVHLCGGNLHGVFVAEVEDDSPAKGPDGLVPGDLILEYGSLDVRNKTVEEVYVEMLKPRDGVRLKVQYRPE
B1: no binding. B2: no binding. B3: no binding. B4: no binding. B5: no binding.

The binders below were run against T2, K316 PDZ-GST fusion protein (Homo sapiens (Human), UniProt Q14CM0 72-159) (assay: A/G assays).
T2 construct: Order of GST and PDZ part and limits not seen in the excerpts
T2 sequence (Q14CM0 72-159 limits assumed): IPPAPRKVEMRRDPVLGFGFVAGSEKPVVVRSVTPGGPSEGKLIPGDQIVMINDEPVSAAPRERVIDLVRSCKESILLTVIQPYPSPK
B1: no binding. B2: no binding. B3: no binding. B5: no binding.

Each binder was assayed against T3, GST-DVL1 PDZ domain fusion protein (human, UniProt O14640 247-339) (assay: A/G assays).
T3 construct: also called human dishevelled segment polarity protein homolog; not shown: glutathione S-transferase encoded by vector pGEX-3X (Pharmacia)
T3 sequence: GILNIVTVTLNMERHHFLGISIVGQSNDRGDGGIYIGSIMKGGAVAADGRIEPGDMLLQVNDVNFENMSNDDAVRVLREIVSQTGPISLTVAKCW
B1: no binding. B2: no binding. B3: no binding. B4: no binding. B5: no binding.

Molecular target: T4, X11β PDZ-GST fusion protein (Rattus norvegicus (Rat), UniProt O35431 560-745)
T4 construct: Order of GST and PDZ part and limits not seen in the excerpts
T4 chain: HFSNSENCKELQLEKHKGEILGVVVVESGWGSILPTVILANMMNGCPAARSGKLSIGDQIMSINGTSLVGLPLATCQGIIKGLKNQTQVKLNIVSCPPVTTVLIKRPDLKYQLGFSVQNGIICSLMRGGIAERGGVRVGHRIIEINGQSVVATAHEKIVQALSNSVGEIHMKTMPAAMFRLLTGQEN
Assay: A/G assays
B1: no binding. B2: no binding. B3: no binding. B4: no binding. B5: no binding.

Each binder was assayed against T5, KIAA0807 (PDZ domain)-GST fusion protein (human, UniProt Q6P0Q8 1104-1192) (assay: A/G assays).
T5 construct: also called K807; KIAA807; not shown: glutathione S-transferase encoded by vector pGEX-3X (Pharmacia)
T5 sequence: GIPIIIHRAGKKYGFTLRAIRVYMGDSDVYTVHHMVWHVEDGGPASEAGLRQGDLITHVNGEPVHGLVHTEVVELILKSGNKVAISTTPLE
B1: no binding. B2: no binding. B3: no binding. B4: no binding. B5: no binding.

Each binder was assayed against T6, TAX-IP2L PDZ-GST fusion protein (Homo sapiens (Human), UniProt Q8TF64 107-197) (assay: A/G assays).
T6 construct: Order of GST and PDZ part and limits not seen in the excerpts
T6 sequence: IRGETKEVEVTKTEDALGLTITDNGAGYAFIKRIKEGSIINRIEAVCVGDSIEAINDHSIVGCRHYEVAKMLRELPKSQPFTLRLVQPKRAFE
B1: no binding. B2: no binding. B3: no binding. B5: no binding.

What follows are binders tested against T7, GST-CASK PDZ domain fusion protein (Homo sapiens, UniProt O14936 486-575) (assay: A/G assays).
T7 construct: also called Homo sapiens CASK protein
T7 sequence: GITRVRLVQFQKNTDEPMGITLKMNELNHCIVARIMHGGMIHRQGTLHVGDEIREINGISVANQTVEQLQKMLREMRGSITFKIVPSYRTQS
B1: no binding. B2: no binding. B3: no binding. B4: no binding.

Molecular target: T8, MINT3 PDZ-GST fusion protein
T8 construct: Order of GST and PDZ part and limits not seen in the excerpts
T8 chain: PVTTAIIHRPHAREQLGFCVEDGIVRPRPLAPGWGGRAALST
Assay: A/G assays
B1: no binding. B2: no binding. B3: no binding. B4: no binding. B5: no binding.

The binders below were run against T9, GST-PDZK1 fusion protein (PDZ domains 2-4) (Homo sapiens, UniProt Q5T2W1 134-457) (assay: A/G assays).
T9 construct: not shown: glutathione S-transferase encoded by vector pGEX-3X (Pharmacia)
T9 sequence: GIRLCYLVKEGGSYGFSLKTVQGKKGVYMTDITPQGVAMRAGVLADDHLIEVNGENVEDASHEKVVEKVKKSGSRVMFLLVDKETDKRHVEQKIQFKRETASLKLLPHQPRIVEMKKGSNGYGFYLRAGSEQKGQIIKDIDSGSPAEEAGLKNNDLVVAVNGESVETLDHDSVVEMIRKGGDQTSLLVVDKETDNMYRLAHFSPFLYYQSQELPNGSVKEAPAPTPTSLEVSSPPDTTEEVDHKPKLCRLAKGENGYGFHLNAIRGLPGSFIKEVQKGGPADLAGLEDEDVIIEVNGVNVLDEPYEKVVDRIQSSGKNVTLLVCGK
B1: no binding. B2: no binding. B3: no binding. B4: no binding. B5: no binding.

Molecular target: T10, GST-mouse syntenin fusion protein (Mus musculus, UniProt O08992 108-286)
T10 construct: also called Mus musculus Syntenin; not shown: glutathione S-transferase encoded by vector pGEX-3X (Pharmacia)
T10 chain: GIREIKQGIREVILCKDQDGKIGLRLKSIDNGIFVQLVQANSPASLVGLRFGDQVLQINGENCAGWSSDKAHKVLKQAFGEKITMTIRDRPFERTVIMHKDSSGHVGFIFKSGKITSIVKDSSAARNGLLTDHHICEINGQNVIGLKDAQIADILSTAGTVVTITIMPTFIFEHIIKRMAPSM
Assay: A/G assays
B1: no binding. B2: no binding. B3: no binding. B4: no binding.

The binders below were run against T11, GST-TAX-IP43 PDZ domain fusion protein (human, UniProt Q13884 109-180) (assay: A/G assays).
T11 construct: also called TAX43; not shown: glutathione S-transferase encoded by vector pGEX-3X (Pharmacia)
T11 sequence: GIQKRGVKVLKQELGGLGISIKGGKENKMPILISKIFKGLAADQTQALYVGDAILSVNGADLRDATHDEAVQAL
B1: no binding. B2: no binding. B3: no binding. B4: no binding. B5: no binding.

The binders below were run against T12, K559 PDZ-GST fusion protein (Homo sapiens (Human), UniProt Q9Y6V0 4489-4593) (assay: A/G assays).
T12 construct: Order of GST and PDZ part and limits not seen in the excerpts
T12 sequence: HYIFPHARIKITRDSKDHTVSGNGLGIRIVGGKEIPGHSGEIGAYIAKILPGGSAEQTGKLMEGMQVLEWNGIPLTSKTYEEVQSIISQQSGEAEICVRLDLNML
B1: no binding. B2: no binding. B3: no binding. B4: no binding. B5: no binding.

What follows are binders tested against T13, TAX-IP33 PDZ-GST fusion protein (Homo sapiens (Human), UniProt O14910 103-193) (assay: A/G assays).
T13 construct: Order of GST and PDZ part and limits not seen in the excerpts
T13 sequence: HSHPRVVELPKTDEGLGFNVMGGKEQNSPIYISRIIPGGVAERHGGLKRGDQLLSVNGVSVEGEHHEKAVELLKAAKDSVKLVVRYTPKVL
B1: no binding. B2: no binding. B3: no binding. B5: no binding.
